# Reference: patent US20240287154A1, “MC3R AGONIST PEPTIDES” (The Regents of the University of Michigan, priority 2021, published 2024)
# Non-standard residues stand in square brackets, D forms with d. Residues, ends and D or L forms follow the SMILES beside them. PKcap1 = N-terminal cap C18 diacid-γGlu-mPEG2; PKcap2 = N-terminal cap Aryl(4-I)-Gly-mPEG2; Bip = N[C@@H](Cc1ccc(-c2ccccc2)cc1)C(=O)O; Phe(4-Br) = N[C@@H](Cc1ccc(Br)cc1)C(=O)O; Phe(4-Cl) = N[C@@H](Cc1ccc(Cl)cc1)C(=O)O; Phe(4-I) = N[C@@H](Cc1ccc(I)cc1)C(=O)O; Nle = CCCC[C@H](N)C(=O)O
# B1: CTX-1168 (peptide)
# peptide: Ac-[Nle][dA]H[Bip]R[dW]DRFG-NH2
# SMILES: CCCC[C@H](NC(C)=O)C(=O)N[C@H](C)C(=O)N[C@@H](Cc1c[nH]cn1)C(=O)N[C@@H](Cc1ccc(-c2ccccc2)cc1)C(=O)N[C@@H](CCCNC(=N)N)C(=O)N[C@H](Cc1c[nH]c2ccccc12)C(=O)N[C@@H](CC(=O)O)C(=O)N[C@@H](CCCNC(=N)N)C(=O)N[C@@H](Cc1ccccc1)C(=O)NCC(N)=O
# B2: CTX-1163 (peptide)
# peptide: Ac-[Nle][dA]HFR[dW]DR-NH2
# SMILES: CCCC[C@H](NC(C)=O)C(=O)N[C@H](C)C(=O)N[C@@H](Cc1c[nH]cn1)C(=O)N[C@@H](Cc1ccccc1)C(=O)N[C@@H](CCCNC(=N)N)C(=O)N[C@H](Cc1c[nH]c2ccccc12)C(=O)N[C@@H](CC(=O)O)C(=O)N[C@@H](CCCNC(=N)N)C(N)=O
# B3: CTX-1171 (peptide)
# peptide: H-[dY]V[Nle][dA]H[Phe(4-I)]R[dW]D-NH2
# SMILES: CCCC[C@H](NC(=O)[C@@H](NC(=O)[C@H](N)Cc1ccc(O)cc1)C(C)C)C(=O)N[C@H](C)C(=O)N[C@@H](Cc1c[nH]cn1)C(=O)N[C@@H](Cc1ccc(I)cc1)C(=O)N[C@@H](CCCNC(=N)N)C(=O)N[C@H](Cc1c[nH]c2ccccc12)C(=O)N[C@@H](CC(=O)O)C(N)=O
# B4: CTX-1166 (peptide)
# peptide: Ac-[Nle][dA]H[Phe(4-Cl)]R[dW]DRFG-OH
# SMILES: CCCC[C@H](NC(C)=O)C(=O)N[C@H](C)C(=O)N[C@@H](Cc1c[nH]cn1)C(=O)N[C@@H](Cc1ccc(Cl)cc1)C(=O)N[C@@H](CCCNC(=N)N)C(=O)N[C@H](Cc1c[nH]c2ccccc12)C(=O)N[C@@H](CC(=O)O)C(=O)N[C@@H](CCCNC(=N)N)C(=O)N[C@@H](Cc1ccccc1)C(=O)NCC(=O)O
# B5: CTX-1165 (peptide)
# peptide: Ac-[Nle][dA]H[Phe(4-Br)]R[dW]DRFG-OH
# SMILES: CCCC[C@H](NC(C)=O)C(=O)N[C@H](C)C(=O)N[C@@H](Cc1c[nH]cn1)C(=O)N[C@@H](Cc1ccc(Br)cc1)C(=O)N[C@@H](CCCNC(=N)N)C(=O)N[C@H](Cc1c[nH]c2ccccc12)C(=O)N[C@@H](CC(=O)O)C(=O)N[C@@H](CCCNC(=N)N)C(=O)N[C@@H](Cc1ccccc1)C(=O)NCC(=O)O
# B6: CTX-1122 (peptide)
# peptide: Ac-[Nle][dA]HFR[dW]DRFG-OH
# SMILES: CCCC[C@H](NC(C)=O)C(=O)N[C@H](C)C(=O)N[C@@H](Cc1c[nH]cn1)C(=O)N[C@@H](Cc1ccccc1)C(=O)N[C@@H](CCCNC(=N)N)C(=O)N[C@H](Cc1c[nH]c2ccccc12)C(=O)N[C@@H](CC(=O)O)C(=O)N[C@@H](CCCNC(=N)N)C(=O)N[C@@H](Cc1ccccc1)C(=O)NCC(=O)O
# B7: CTX-1164 (peptide)
# peptide: Ac-[Nle][dA]HFR[dW]GKPV-NH2
# SMILES: CCCC[C@H](NC(C)=O)C(=O)N[C@H](C)C(=O)N[C@@H](Cc1c[nH]cn1)C(=O)N[C@@H](Cc1ccccc1)C(=O)N[C@@H](CCCNC(=N)N)C(=O)N[C@H](Cc1c[nH]c2ccccc12)C(=O)NCC(=O)N[C@@H](CCCCN)C(=O)N1CCC[C@H]1C(=O)N[C@H](C(N)=O)C(C)C
# Biological target: human MC3R (human, UniProt P41968 1-323)
# Sequence (P41968 whole entry): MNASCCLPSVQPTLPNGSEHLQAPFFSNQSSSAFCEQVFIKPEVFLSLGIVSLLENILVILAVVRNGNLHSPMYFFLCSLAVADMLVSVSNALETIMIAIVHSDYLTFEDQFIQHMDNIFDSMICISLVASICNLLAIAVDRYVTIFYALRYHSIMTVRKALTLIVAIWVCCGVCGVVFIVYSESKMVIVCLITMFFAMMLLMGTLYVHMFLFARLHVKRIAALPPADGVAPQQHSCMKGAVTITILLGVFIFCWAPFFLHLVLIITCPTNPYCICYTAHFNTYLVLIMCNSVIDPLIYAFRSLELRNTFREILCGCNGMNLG
# Test: cell-based or functional assay
# Conditions: not given
Molecule,MC3R cAMP (EC50) [nM],MC3R selectivity (relative to MC4R)
PKcap2-G[Nle][dA]HFR[dW]DR[dF]G-OH [CTX-1154],5.8,1070
B1,28.6,485
PKcap2-G[Nle][dA]HFR[dW]DRFG-OH [CTX-1148],1.5,1200
B2,19.4,282
PKcap2-GV[Nle][dA]HFR[dW]DRFG-OH [CTX-1150],2.9,577
B3,54,234
PKcap1-G[Nle][dA]HFR[dW]DRFG-OH [CTX-1147],556,335
PKcap2-G[dY]V[Nle][dA]HFR[dW]D[dR]FG-OH [CTX-1156],8.6,86
PKcap1-G[dY]V[Nle][dA]HFR[dW]DRFG-OH [CTX-1151],299,126
"PKcap1-GV[Nle][dA]HFR[dW]DRFG-OH [CTX-1149 (PKcap1, SEQ ID NO 40)]",313,215
B4,1.6,3100
B5,3,5600
PKcap1-G[dY]V[Nle][dA]HFR[dW]D[dR]FG-OH [CTX-1155],3130,415
B6,1.2,7700
B7,1.5,83
PKcap1-G[Nle][dA]HFR[dW]DR[dF]G-OH [CTX-1153],5120,0.13

# Biological target: human MC4R (Homo sapiens, UniProt P32245)
# Sequence (P32245 whole entry): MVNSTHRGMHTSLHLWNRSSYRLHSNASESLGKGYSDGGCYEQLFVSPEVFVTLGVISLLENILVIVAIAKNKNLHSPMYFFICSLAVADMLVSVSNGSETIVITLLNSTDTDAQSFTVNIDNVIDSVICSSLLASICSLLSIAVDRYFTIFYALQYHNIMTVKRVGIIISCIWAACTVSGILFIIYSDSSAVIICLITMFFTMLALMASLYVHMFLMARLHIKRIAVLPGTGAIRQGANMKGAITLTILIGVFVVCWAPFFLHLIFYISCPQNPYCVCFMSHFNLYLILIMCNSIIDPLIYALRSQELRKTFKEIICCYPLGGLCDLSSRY
# Test: Intracellular cAMP levels in live cells, MC3R selectivity relative to MC4R
# Type: cell-based
# Conditions: cAMP assays in human MC3R and human MC4R stable cell lines
# Experimental: The stable cell lines were grown and maintained in selection media consisting of Dulbecco's modified Eagle media (DMEM) with 4.5 g/l D-glucose, and 4 mM L-glutamine (Thermo Fisher Scientific, Waltham, MA), supplemented with 10% fetal bovine serum, 100 units/ml penicillin, 100 μg/ml streptomycin, 2.5 μg/ml amphotericin B, 200 μg/ml hygromycin B (for positive selection of the GScAMP22f luciferase reporter), and Geneticin™ (G418) 700 μg/ml (for MC3R or MC4R selection). Actual serum concentration during the assay is estimated to be about 1%. Cell line identity is routinely verified by qPCR and MC3R- and MC4R-specific oligonucleotides.
# The assay for the determination of the CAMP response in live cells was described previously. […] Ccells were seeded at a density of 20,000 cells per well using 384-well poly-D lysine-coated, clear bottom, and black-wall assay plates (Corning Inc. Corning, NJ). Cells were allowed to attach to the plates for 18 to 24 h after which growth media was removed and 20 ul of 4% D-luciferin (Promega) in CO2 independent, serum-free medium (Thermo Fisher Scientific) was added to each well. […] Intracellular cAMP levels were measured using an FDSS 7000EX Functional Drug Screening System (Hamamatsu Photonics, Hamamatsu, Japan) in the Center for Chemical Genomics at the Life Sciences Institute. This instrument allowed the in-line addition of test-peptides and receptor agonists while simultaneously acquiring the luminescence signal from live cells. […] A submaximal forskolin (20 μM) concentration was also included to serve as a normalization reference to account for cell number variations and differences in assay transducer efficiency between cell lines.
# With this set up it was possible to evaluate the direct agonist effect of the test-peptides on the MC3R and MC4R cell lines during measurement window 1, while the antagonist profile in the presence of EC90 α-MSH was determined on measurement window 2. […] EC50 or IC50 potency values were determined by non-linear regression by fitting the data to a sigmoid four-parameter variable slope model using the GraphPad Prism version 8.4 software package (San Diego CA).
row,Molecule,MC3R selectivity (relative to MC4R)
1,"CCCC[C@H](NC(C)=O)C(=O)NCC(=O)N[C@@H](Cc1c[nH]cn1)C(=O)N[C@@H](Cc1ccccc1)C(=O)N[C@@H](CCCNC(=N)N)C(=O)N[C@H](Cc1c[nH]c2ccccc12)C(=O)N[C@@H](CC(=O)O)C(=O)N[C@@H](CCCNC(=N)N)C(=O)N[C@@H](Cc1ccccc1)C(=O)NCC(=O)O [CTX-1185, Nle-Gly-His-Phe-Arg-D-Trp-Asp-Arg-Phe-Gly] (Ac-[Nle]GHFR[dW]DRFG-OH)","2,312"
2,"CCCC[C@H](NC(C)=O)C(=O)N[C@H](C)C(=O)N[C@@H](Cc1c[nH]cn1)C(=O)N[C@@H](Cc1ccccc1)C(=O)N[C@@H](CCCCN)C(=O)N[C@H](Cc1c[nH]c2ccccc12)C(=O)N[C@@H](CC(=O)O)C(=O)N[C@@H](CCCNC(=N)N)C(=O)N[C@@H](Cc1ccccc1)C(=O)NCC(=O)O [CTX-1523, Nle-D-Ala-His-Phe-Lys-D-Trp-Asp-Arg-Phe-Gly] (Ac-[Nle][dA]HFK[dW]DRFG-OH)","5,321"
3,"CCCC[C@H](NC(=O)[C@@H](NC(=O)CNC(=O)COCCOCCNC(=O)CNC(=O)CCc1ccc(I)cc1)C(C)C)C(=O)N[C@H](C)C(=O)N[C@@H](Cc1c[nH]cn1)C(=O)N[C@@H](Cc1ccccc1)C(=O)N[C@@H](CCCNC(=N)N)C(=O)N[C@H](Cc1c[nH]c2ccccc12)C(=O)N[C@@H](CC(=O)O)C(=O)N[C@@H](CCCNC(=N)N)C(=O)N[C@@H](Cc1ccccc1)C(=O)NCC(=O)O [CTX-1150, Gly-Val-Nle-D-Ala-His-Phe-Arg-D-Trp-Asp-Arg-Phe-Gly]",577
4,"CCCC[C@H](NC(C)=O)C(=O)N[C@H](C)C(=O)N[C@@H](Cc1c[nH]cn1)C(=O)N[C@@H](Cc1ccccc1)C(=O)N[C@@H](CCCNC(=N)N)C(=O)N[C@H](Cc1c[nH]c2ccccc12)C(=O)N[C@H](Cc1ccccc1)C(N)=O [CTX-1542, Nle-D-Ala-His-Phe-Arg-D-Trp-D-Phe] (Ac-[Nle][dA]HFR[dW][dF]-NH2)",15
5,"CCCC[C@H](NC(C)=O)C(=O)N[C@H](C)C(=O)N[C@@H](Cc1c[nH]cn1)C(=O)N[C@@H](Cc1ccccc1)C(=O)N[C@@H](CCCNC(=N)N)C(=O)N[C@H](Cc1c[nH]c2ccccc12)C(=O)N[C@@H](CC(=O)O)C(=O)N[C@@H](CCCNC(=N)N)C(=O)N[C@H](Cc1ccccc1)C(N)=O [CTX-1159, Nle-D-Ala-His-Phe-Arg-D-Trp-Asp-Arg-D-Phe] (Ac-[Nle][dA]HFR[dW]DR[dF]-NH2)",213
6,"CCCC[C@H](NC(C)=O)C(=O)N[C@H](C)C(=O)N[C@@H](CCCNC(=N)N)C(=O)N[C@@H](Cc1ccc(I)cc1)C(=O)N[C@@H](CCCNC(=N)N)C(=O)N[C@H](Cc1c[nH]c2ccccc12)C(=O)N[C@@H](CC(=O)O)C(=O)N[C@@H](CCCNC(=N)N)C(=O)N[C@@H](Cc1ccccc1)C(=O)NCC(=O)O [CTX-1197, Nle-D-Ala-Arg-Phe(4-I)-Arg-D-Trp-Asp-Arg-Phe-Gly] (Ac-[Nle][dA]R[Phe(4-I)]R[dW]DRFG-OH)",250
